In patent US20230201151A1, “FORMULATIONS AND METHODS FOR TREATING ACUTE RESPIRATORY DISTRESS SYNDROME, ASTHMA, OR ALLERGIC RHINITIS” (UNIVERSITY OF FLORIDA RESEARCH FOUNDATION, INC., priority 2020, published 2023):

Target: T1, ENaC (Homo sapiens, UniProt P37088+P51168+P51170)
T1 construct: primary cultures of human bronchial epithelial cells (HBEC) harvested from normal human lungs; endogenous in cells; host or cells: primary human bronchial epithelial cells (HBEC) from donor lungs, differentiated at an air-liquid interface
T1 sequence (P37088 1-669): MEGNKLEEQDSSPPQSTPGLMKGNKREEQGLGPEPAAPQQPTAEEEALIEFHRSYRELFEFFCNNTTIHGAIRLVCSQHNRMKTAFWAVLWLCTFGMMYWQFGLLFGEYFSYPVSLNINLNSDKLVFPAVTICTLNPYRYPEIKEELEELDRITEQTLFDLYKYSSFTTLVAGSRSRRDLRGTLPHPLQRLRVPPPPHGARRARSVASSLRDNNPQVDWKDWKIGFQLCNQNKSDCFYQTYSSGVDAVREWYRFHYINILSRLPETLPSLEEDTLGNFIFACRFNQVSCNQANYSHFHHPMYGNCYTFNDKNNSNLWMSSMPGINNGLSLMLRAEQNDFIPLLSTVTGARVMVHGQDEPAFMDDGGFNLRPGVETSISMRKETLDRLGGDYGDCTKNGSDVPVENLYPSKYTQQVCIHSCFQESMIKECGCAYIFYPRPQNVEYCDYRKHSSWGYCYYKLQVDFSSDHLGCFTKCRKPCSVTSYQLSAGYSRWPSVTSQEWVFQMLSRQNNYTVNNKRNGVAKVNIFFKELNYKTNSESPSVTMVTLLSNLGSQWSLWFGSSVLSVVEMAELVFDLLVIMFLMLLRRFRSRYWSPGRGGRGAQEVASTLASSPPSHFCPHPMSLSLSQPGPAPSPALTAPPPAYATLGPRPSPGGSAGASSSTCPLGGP
T1 sequence (P51168 1-640): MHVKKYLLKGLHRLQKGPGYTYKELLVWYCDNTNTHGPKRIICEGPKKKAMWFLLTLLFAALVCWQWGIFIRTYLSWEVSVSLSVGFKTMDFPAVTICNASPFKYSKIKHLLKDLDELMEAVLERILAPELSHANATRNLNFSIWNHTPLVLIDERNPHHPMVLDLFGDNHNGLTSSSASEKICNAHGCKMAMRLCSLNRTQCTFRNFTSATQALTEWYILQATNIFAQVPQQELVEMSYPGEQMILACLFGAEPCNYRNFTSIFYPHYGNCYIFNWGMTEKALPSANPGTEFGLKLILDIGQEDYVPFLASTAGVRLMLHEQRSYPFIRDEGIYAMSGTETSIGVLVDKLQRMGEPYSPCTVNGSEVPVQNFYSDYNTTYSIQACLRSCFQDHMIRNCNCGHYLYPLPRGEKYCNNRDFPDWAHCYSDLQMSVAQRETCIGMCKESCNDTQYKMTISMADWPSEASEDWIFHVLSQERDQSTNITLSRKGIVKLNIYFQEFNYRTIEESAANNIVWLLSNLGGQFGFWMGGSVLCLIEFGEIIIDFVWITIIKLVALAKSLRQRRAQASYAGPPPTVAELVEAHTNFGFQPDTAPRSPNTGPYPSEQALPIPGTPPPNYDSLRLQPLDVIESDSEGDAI
T1 sequence (P51170 1-649): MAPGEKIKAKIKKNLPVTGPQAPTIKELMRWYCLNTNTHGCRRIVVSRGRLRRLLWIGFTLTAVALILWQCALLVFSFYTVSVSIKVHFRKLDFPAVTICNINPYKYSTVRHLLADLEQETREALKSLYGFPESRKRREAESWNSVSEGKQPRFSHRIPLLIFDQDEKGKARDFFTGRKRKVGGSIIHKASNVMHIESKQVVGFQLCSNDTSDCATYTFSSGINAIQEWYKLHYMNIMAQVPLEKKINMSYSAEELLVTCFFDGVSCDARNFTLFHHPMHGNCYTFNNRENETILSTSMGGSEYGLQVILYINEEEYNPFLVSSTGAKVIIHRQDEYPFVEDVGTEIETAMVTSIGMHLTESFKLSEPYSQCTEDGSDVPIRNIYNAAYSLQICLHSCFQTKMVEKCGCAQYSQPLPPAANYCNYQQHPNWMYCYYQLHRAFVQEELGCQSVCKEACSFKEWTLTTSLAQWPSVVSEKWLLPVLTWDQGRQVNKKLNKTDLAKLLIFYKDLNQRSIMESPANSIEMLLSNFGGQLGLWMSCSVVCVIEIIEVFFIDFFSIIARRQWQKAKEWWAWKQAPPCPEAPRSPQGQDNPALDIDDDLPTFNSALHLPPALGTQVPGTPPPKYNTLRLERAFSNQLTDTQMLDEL
Experiment: ENaC current (benzamil-sensitive current) in IL-13-treated differentiated HBEC, Examples 1-2
Type: cell-based
Procedure: IL-13: abcam (#ab9577); Stock solution: 10 μg/mL water; 20 ng=2 μL Stock/mL media Media change with IL-13 every other day
Experimental design: IL-13 treatment with 20 ng/mL media for 4 and 14 days. Ussing chamber experiment in Basic Ringer (5 mM glucose in basolateral side).
In some embodiments, experimental studies called for determination of: • Baseline values (30 min) • Presence or absence of 6 μM Benzamil (on apical side) (15 min) • Presence or absence of 20 μM CFTRinh 172 (on apical and basolateral sides) (15 min) • Presence or absence 10 μM CaCCinh AO1 (on apical and basolateral sides) (10 min) • Presence or absence of 20 μM Bumetanide (on basolateral side) (15 min)
For Day 0 analysis: • IL-13 treatment: 0 ng/mL media • Ussing chamber experiment in basic ringer or amino acid (AA) formulations. • In addition, S side added 5 mM Glucose
Treatment for 4 days or 14 days analysis: • IL-13 treatment: 20 ng/mL media • Ussing chamber experiment in basic ringer or AA formulations. • In addition, S side added 5 mM Glucose
In some embodiments, the day 4 and day 14 experimental studies called for determination of: • Baseline values (30 min) • Presence or absence of 6 μM Benzamil (on mucosal side) (15 min) • Presence or absence of 20 μM Bumetanide (on serosal side) (15 min) • Presence or absence of 20 μM CFTRinh 172 (on mucosal and serosal sides) (15 min) […]

Substance: IL-13: Th2 cytokine (Abcam) added to HBEC culture medium
- ENaC current versus IL-13 concentration (FIG. 2): dose-dependent reduction
- day of maximum reduction in ENaC current (IL-13 exposure (FIG. 3)): 8 days
